Measured values taken from article PMC6075780, “Interaction of lipoprotein QseG with sensor kinase QseE in the periplasm controls the phosphorylation state of the two-component system QseE/QseF in Escherichia coli” (PLoS Genetics, 2018).

B1: T25-QseE [E. coli K-12] / T18-TM_(oppB)-QseG [E. coli K-12] (parent complex)
chain 1: MKRWPVFPRSLRQLVMLAFLLILLPLLVLAWQAWQSLNALSDQAALVNRTTLIDARRSEAMTNAALEMERSYRQYCVLDDPTLAKVYQSQRKRYSEMLDAHAGVLPDDKLYQALRQDLHNLAQLQCNNSGPDAAAAARLEAFASANTEMVQATRTVVFSRGQQLQREIAERGQYFGWQSLVLFLVSLVMVLLFTRMIIGPVKNIERMINRLGEGRSLGNSVSFSGPSELRSVGQRILWLSERLSWLESQRHQFLRHLSHELKTPLASMREGTELLADQVVGPLTPEQKEVVSILDSSSRNLQKLIEQLLDYNRKQADSAVELENVELAPLVETVVSAHSLPARAKMMHTDVDLKATACLAEPMLLMSVLDNLYSNAVHYGAESGNICLRSSLHGARVYIDVINTGTPIPQEERAMIFEPFFQGSHQRKGAVKGSGLGLSIARDCIRRMQGELYLVDESGQDVCFRIELPSSKNTK
chain 2: CVQNHNKPAIDTPAEEKIPVYQLADYLSTECSDIWALQGKSTETNPLYWLRAMDCADRLMPAQSRQQARQYDDGSWQNTFKQGILLADAKITPYERRQLVARIEALSTEIPAQVRPLYQLWRDGQALQLQLAEERQRYSKLQQSSDSELDTLRQQHHVLQQQLELTTRKLENLTDIERQLSTRKPAGNFSPDTPHESEKPAPSTHEVTPDEP

Variants of: B1
Experiment: BACTH assay (bacterial two-hybrid, β-galactosidase read-out); reporter strain BTH101; plasmids pYG242/pYG199_1.6; parent: 1.6e+03; read off a plot

| Variant | response |
| --- | --- |
| chain 1 MKRWPVFPRSLRQLVMLAFLLILLPLLVLAWQAWQSLNALSDQAALVNRTTLIDARRNEAMTNAALEMERSYRQYCVLDDPTLAKVYQSQRKRYSEMLDAHAGVLPDDKLYQALRQDLHNLAQLQCNNSGPDAAAAARLEAFASANTEMVQATRTVVFSRGQQLQREIAERGQYFGWQSLVLFLVSLVMVLLFTRMIIGPVKNIERMINRLGEGRSLGNSVSFSGPSELRSVGQRILWLSERLSWLESQRHQFLRHLSHELKTPLASMREGTELLADQVVGPLTPEQKEVVSILDSSSRNLQKLIEQLLDYNRKQADSAVELENVELAPLVETVVSAHSLPARAKMMHTDVDLKATACLAEPMLLMSVLDNLYSNAVHYGAESGNICLRSSLHGARVYIDVINTGTPIPQEERAMIFEPFFQGSHQRKGAVKGSGLGLSIARDCIRRMQGELYLVDESGQDVCFRIELPSSKNTK [chain 1 S58N] | ~250 Miller units |

Variants of: B1
Experiment: BACTH assay (bacterial two-hybrid, β-galactosidase read-out); reporter strain BTH101; plasmids pYG242/pYG199_TM1; parent: 1.6e+03; read off a plot

| Variant | response |
| --- | --- |
| chain 1 MKRWPVFPRSLRQLVMLALLHRPPPLLVLAWQAWQSLNALSDQAALVNRTTLIDARRSEAMTNAALEMERSYRQYCVLDDPTLAKVYQSQRKRYSEMLDAHAGVLPDDKLYQALRQDLHNLAQLQCNNSGPDAAAAARLEAFASANTEMVQATRTVVFSRGQQLQREIAERGQYFGWQSLVLFLVSLVMVLLFTRMIIGPVKNIERMINRLGEGRSLGNSVSFSGPSELRSVGQRILWLSERLSWLESQRHQFLRHLSHELKTPLASMREGTELLADQVVGPLTPEQKEVVSILDSSSRNLQKLIEQLLDYNRKQADSAVELENVELAPLVETVVSAHSLPARAKMMHTDVDLKATACLAEPMLLMSVLDNLYSNAVHYGAESGNICLRSSLHGARVYIDVINTGTPIPQEERAMIFEPFFQGSHQRKGAVKGSGLGLSIARDCIRRMQGELYLVDESGQDVCFRIELPSSKNTK [chain 1 F19L, chain 1 L21H, chain 1 I22R, chain 1 L23P, chain 1 L24P] | ~70 Miller units |
